Laboratory results taken from the RNAGym collection of RNA variant scans (doi:10.1073/pnas.2313332121).

B1: TPR t1 (parent)
chain: GACCAAUCUGCCCUCAGAGCUCGAGAACAUCUUCGGAUGCAGAGGAGGCAGGCUUCGGUGGCGCGAUAGCGCCAACGUCCUCAACCUCCAAUGCAUCCCACCACAUGAUGAUGCCUGAAGAGCCUUGGUUUUUUG

Variants of: B1
Experiment: polymerase ribozyme fitness, log enrichment relative to wild type (log ratio); higher = more active; in vitro selection for triplet polymerase activity
How it was run: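 After PCR construction and transcription, each subunit's mutant library from a heterodimeric triplet polymerase ribozyme was annealed with a biotinylated primer, the partner subunit and triplets. Incubation was frozen, at −7 °C, and extended constructs were gel-excised, bound to streptavidin beads and amplified by RT-PCR, in one selection round done in triplicate. Fitness is the logarithm of a genotype's enrichment divided by that of the wild type, from inverse-variance-weighted replicate averages of Illumina-sequenced inputs and outputs. The base of the logarithm is 2, and genotypes needed ≥10 input reads and ≥1 read per output.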

GACCAAUCUGCCCUCAGAGCUCGAGAACAUCUUCGGAUGCAGAGGAGGCAGGCUUCGGUGGCGCGAUAGCGCGAACGUCCUCAACCUCCAAUGCAUCCCACCACAUGAUGAUGCCUGAAGAGCCUUGGUUUUGUG and GACCAAUCUGCCCUCAGAGCUCGAGAACAUCUUCGGAUGCAGAGGAGGCAGGCUUCGGUGGCGCGAUAGCGCGAACGUCCUCAACCUCCAAUGCAUCCCACCACAUGAUGAUGCCUGAAAAGCCUUGGGUUUUUG are within 0.2 log units of each other in “polymerase ribozyme fitness (log ratio)” value: -1.21 for the first, -1.1 for the second.

First: GACCAAUCUGCCCUCAGAGCUCGAGAACAUCUUCGGAUGCAGAGGAGGCAGGCUUCGGUGGCGCGAUAGCGCUAAGGUCCUCAACCUCCAAUGCAUCCCACCACAUGAUGAGGCCUGAAGAGCCUUGGUUUUUUG
Second: GACCAAUCUGCCCUCAGAGCUCGAGAACAUCUUCGGAUGCAGAGGAGGCAGGCUUCGGUGGCGCGAUAGCGCUAACGUCCUCAACCUCUAAUGCAUCCCAUCACAUGAUGAUGCCUGAAGAGCCUUGGUUUUUUG
The “polymerase ribozyme fitness (log ratio)” value of the first is lower: -1.81 for the first, -0.461 for the second.

Going from GACCAAUCUGCCCUCAGAGCUCGAGAACAUCUUCGGAUGCAGAGGAGGCAGGCUUCGGUGGCGCGAUAGCGCUAACGUCCUCAACCUUCAAUGCAUCCCACCACAUGAUGAUGCCUGAAGAGCCUUGGUUUUUUG to GACCAAUCUGCCCUCAGAGCUCGAGAACAUCUUCGGAUGCAGAGGAGGCAGGCUUCGGUGGCGCGAUAGCGCGAACGUCCUCAACCUCCAAUGCAUCCCACCACAUGAUGAUGCCUGAAGAGCCUUAGUUUUUUG, the “polymerase ribozyme fitness (log ratio)” value falls from -0.361 to -1.82.

First: GACCAAUCUGCCCUCAGAGCUCGAGAACAUCUUCGGAUGCAGAGGAGGCAGGCUUCGGUGGCGCGAUAGCGCUAGCAUCCUCAACCUCCAAUGCAUCCCACCACAUGAGGAUGCCUGAAGAGCCUUGGUUUUUUG
Second: GACCAAUCUGCCCUCAGAGCUCGAGAACAUCUUCGGAUGCAGAGGAGGCAGGCUUCGGUGGCGCGAUAGCGCUAACGUCCUCAACAUCCAAUGCAUCCCACCACAUGAUGAUGCCUGAAGAGCCUUGGUUUUUUG
The “polymerase ribozyme fitness (log ratio)” value of the first is lower: -6.15 for the first, -0.276 for the second.

First: GACCAAUCUGCCCUCAGAGCUCGAGAACAUCUUCGGAUGCAGAGGAGGCAGGCUUCGGUGGCGCGAUAGCGCUAACGUCCUCAUCCUCCAAUGCAUCCCACCACAUGAUUAUGCCUGAAGAGCCUUGGUUUUUUG
Second: GACCAAUCUGCCCUCAGAGCUCGAGAACAUCUUCGGAUGCAGAGGAGGCAGGCUUCGGUGGCGCGAUAGCGCUAACGUCCUCAACCUCCCAUGCCUCCCACCACAUGAUGAUGCCUGAAGAGCCUUGGUUUUUUG
The “polymerase ribozyme fitness (log ratio)” value of the first is lower: -1.67 for the first, -1.36 for the second.

Compared with GACCAAUCUGCCCUCAGAGCUCGAGAACAUCUUCGGAUGCAGAGGAGGCAGGCUUCGGUGGCGCGAUAGCGCGAACGUCCUCAACCUCCAAUGCAUCCCACCACAUGAUGAUGCCCGAAGAGCCUUGGUUAUUUG, GACCAAUCUGCCCUCAGAGCUCGAGAACAUCUUCGGAUGCAGAGGAGGCAGGCUUCGGUGGCGCGAUAGCGCUAACGUCAUCAACCUCCUAUGCAUCCCACCACAAGAUGAUGCCUGAAGAGCCUUGGUUUUUUG is lower in “polymerase ribozyme fitness (log ratio)” value: -1.53 for the first, -5.89 for the second.

Compared with GACCAAUCUGCCCUCAGAGCUCGAGAACAUCUUCGGAUGCAGAGGAGGCAGGCUUCGGUGGCGCGAUAGCGCUAACGUUCUCAACCUCCAAUGCAUCCCACCAUAUGAUGAUGCCUGAAGAGCCUUGGUUUUUUG, GACCAAUCUGCCCUCAGAGCUCGAGAACAUCUUCGGAUGCAGAGGAGGCAGGCUUCGGUGGCGCGAUAGCGCUAACGUCCUCAACGUCCAAUGCAUCCCACCACAUGAUGAUGCGUGAAGAGCCUUGGAUUUUUG is lower in “polymerase ribozyme fitness (log ratio)” value: -0.0392 for the first, -5.03 for the second.

Going from GACCAAUCUGCCCUCAGAGCUCGAGAACAUCUUCGGAUGCAGAGGAGGCAGGCUUCGGUGGCGCGAUAGCGCUAACGUCCUAAACCUCCAAUGCAUCCCACCACAUGAUGAUGCCUGAAGAGCCUUGGUUUUUUG to GACCAAUCUGCCCUCAGAGCUCGAGAACAUCUUCGGAUGCAGAGGAGGCAGGCUUCGGUGGCGCGAUAGCGCUAACGUACUCAACCUCCCAUGCAUCCCACCACAUGAUGAUGCAUGAAGAGCCUUGGUUUUUUG, the “polymerase ribozyme fitness (log ratio)” value falls from 0.468 to -2.96.

First: GACCAAUCUGCCCUCAGAGCUCGAGAACAUCUUCGGAUGCAGAGGAGGCAGGCUUCGGUGGCGCGAUAGCGCUAACGUCCUCAACCUCCAAUGCAUUCCACAACAUGAUGAUGCCUGAAGAGCCUUGGUCUUUUG
Second: GACCAAUCUGCCCUCAGAGCUCGAGAACAUCUUCGGAUGCAGAGGAGGCAGGCUUCGGUGGCGCGAUAGCGCGAACGUCCUCAACCUCCAAUGCAUCCCACCACAUGAUGAUGCCUGAAGAGCCUUGGGUUUUUG
The “polymerase ribozyme fitness (log ratio)” value of the first is lower: -2.5 for the first, -2.27 for the second.

Going from GACCAAUCUGCCCUCAGAGCUCGAGAACAUCUUCGGAUGCAGAGGAGGCAGGCUUCGGUGGCGCGAUAGCGCUGACGUCCUCAACCUCCAAUGCAUCCUACCACAUGAUGAUGCCUGAAGAGCCUUGGUUUUUUG to GACCAAUCUGCCCUCAGAGCUCGAGAACAUCUUCGGAUGCAGAGGAGGCAGGCUUCGGUGGCGCGAUAGCGCGAACGUCCUCAACCUCCAAUGCAUCCCACCACAUGAGGAUGCCUGAAGAGCCUUGGUUUUUUG, the “polymerase ribozyme fitness (log ratio)” value falls from -3.36 to -6.77.

For GACCAAUCUGCCCUCAGAGCUCGAGAACAUCUUCGGAUGCAGAGGAGGCAGGCUUCGGUGGCGCGAUAGCGCGAACGUCCUCAACCUCCAAUGCAUCCCACCACAUGAAGAUGCCUGAAGAGCCUUGGUUUUUUG, the “polymerase ribozyme fitness (log ratio)” value was -5.36.
